The target of one assay is H2B:mRFP (UniProt P06899). Nature of the assay: FRET or BRET; FLIM-FRET in cells in interphase; GFP fusion as donor, mRFP or dsRed fusion as acceptor; multiphoton excitation at 890 nm; at least 20 cells per condition.
A further assay has as its target histone H3. The experiment in a line: TrAP-tag pull-down and mass spectrometry. The note with it: DT40 cells blocked in mitosis with colcemid, then forced to exit from mitosis by addition of roscovitine; parent: 17.
In another assay the target is PP1. Nature of the assay: TrAP-tag pull-down and mass spectrometry. The note with it: DT40 cells blocked in mitosis with colcemid, then forced to exit from mitosis by addition of roscovitine; parent: 18.
Assay [1] addresses NUP153 (endogenous, DT40). Nature of the assay: TrAP-tag pull-down and mass spectrometry. Particulars: DT40 cells blocked in mitosis with colcemid, then forced to exit from mitosis by addition of roscovitine; parent: 8.
The target of a further assay is NUP50 (endogenous, DT40). Nature of the assay: TrAP-tag pull-down and mass spectrometry. Particulars: DT40 cells blocked in mitosis with colcemid, then forced to exit from mitosis by addition of roscovitine; parent: 17.
The target of the next assay is histone H2B. Nature of the assay: TrAP-tag pull-down and mass spectrometry. Particulars: DT40 cells blocked in mitosis with colcemid, then forced to exit from mitosis by addition of roscovitine; parent: 12.
Assay [2] concerns the target Importin β (endogenous, DT40). Nature of the assay: TrAP-tag pull-down and mass spectrometry. Particulars: DT40 cells blocked in mitosis with colcemid, then forced to exit from mitosis by addition of roscovitine; parent: 15.

From PMC3480639 come the findings set out here.

Consider “GFP:Repo-Man (from UniProt Q69YH5 1-1023) (natural protein)”, for which the E FRET in the assay with H2B:mRFP was 22%.

On to “TrAP:hRepo-Man^WT (from UniProt Q69YH5) RVTF>RAXA (V>A; F>A in the RVTF motif, residue numbers not printed)”, for which the other: number of peptides identified by mass spectrometry is 12 with histone H3; -0 with PP1; 34 in assay [1]; 17 with NUP50 (endogenous, DT40); 14 with histone H2B; 35 in assay [2].
